In paper PMC5436651 (PLoS ONE, 2017):

Key:
[1] = target: the molecule itself; test: AUC; sedimentation velocity at low protein concentration (3-5 μM); 42,000 r.p.m., 4°C; 20 mM Tris pH 7.5, 50 mM NaCl, 5% glycerol, 250 μM TCEP; monomer to dimer
[2] = target: the molecule itself; test: AUC; sedimentation velocity at increased protein concentration (RIP2K at 10 and 18 μM; range tested 4 to 18 μM); 42,000 r.p.m., 4°C; 20 mM Tris pH 7.5, 50 mM NaCl, 5% glycerol, 250 μM TCEP; oligomers beyond the dimer
[3] = target: the molecule itself; test: native MS; 3-5 μM protein in 250 mM ammonium acetate with 1 mM DTT, nano-ESI Q-TOF; RIP2K_(D146N) as the staurosporine sample
[4] = target: the molecule itself; test: crystal structure; RIP2K_(L294F) 5 mg/ml with 2 mM AMPPCP and 5 mM MgCl2; sitting drop, 20°C; P4(1)2(1)2, a dimer in the asymmetric unit; 2.0 Å

B1: RIP2K_(K47R) (RIP2 kinase domain 1-300, kinase-dead mutant K47R, not phosphorylated) (domain or fragment, UniProt O43353 1-300, looked up)
chain: MNGEAICSALPTIPYHKLADLRYLSRGASGTVSSARHADWRVQVAVRHLHIHTPLLDSERKDVLREAEILHKARFSYILPILGICNEPEFLGIVTEYMPNGSLNELLHRKTEYPDVAWPLRFRILHEIALGVNYLHNMTPPLLHHDLKTQNILLDNEFHVKIADFGLSKWRMMSLSQSRSSKSAPEGGTIIYMPPENYEPGQKSRASIKHDIYSYAVITWEVLSRKQPFEDVTNPLQIMYSVSQGHRPVINEESLPYDIPHRARMISLIESGWAQNPDERPSFLKCLIELEPVLRTFEEI
notes: Not phosphorylated by mass spectrometry; also called Rip2_(K47R)
stoichiometry N [1]: 2 | stoichiometry N [2]: 4

B2: RIP2K_(D146N) (RIP2 kinase domain 1-300, kinase-dead mutant D146N, not phosphorylated) (domain or fragment, UniProt O43353 1-300, looked up)
chain: MNGEAICSALPTIPYHKLADLRYLSRGASGTVSSARHADWRVQVAVKHLHIHTPLLDSERKDVLREAEILHKARFSYILPILGICNEPEFLGIVTEYMPNGSLNELLHRKTEYPDVAWPLRFRILHEIALGVNYLHNMTPPLLHHNLKTQNILLDNEFHVKIADFGLSKWRMMSLSQSRSSKSAPEGGTIIYMPPENYEPGQKSRASIKHDIYSYAVITWEVLSRKQPFEDVTNPLQIMYSVSQGHRPVINEESLPYDIPHRARMISLIESGWAQNPDERPSFLKCLIELEPVLRTFEEI
notes: Not phosphorylated by mass spectrometry; also called RIP2K_(D146N)-STAU; RIP2KD146N-STAU; source: mixed with 0.5 mM staurosporine during dialysis
stoichiometry N [3]: 2

B3: RIP2K (kinase domain of Receptor Interacting protein kinase 2, residues 1-300), wild type, phosphorylated (domain or fragment, UniProt O43353 1-300, looked up)
chain: MNGEAICSALPTIPYHKLADLRYLSRGASGTVSSARHADWRVQVAVKHLHIHTPLLDSERKDVLREAEILHKARFSYILPILGICNEPEFLGIVTEYMPNGSLNELLHRKTEYPDVAWPLRFRILHEIALGVNYLHNMTPPLLHHDLKTQNILLDNEFHVKIADFGLSKWRMMSLSQSRSSKSAPEGGTIIYMPPENYEPGQKSRASIKHDIYSYAVITWEVLSRKQPFEDVTNPLQIMYSVSQGHRPVINEESLPYDIPHRARMISLIESGWAQNPDERPSFLKCLIELEPVLRTFEEI
modifications: auto-phosphorylated in vitro: phosphoserine at 174, 176, 178 and at 180 or 181 (a maximum of five phosphorylation sites)
notes: also called WT RIP2K; RIP2K_(1-300); source: de-phosphorylated with lambda phosphatase and re-phosphorylated before native MS and AUC
stoichiometry N [1]: 2

B4: RIP2K_(L294F) (RIP2 kinase domain 1-300 with the spontaneous mutation L294F), crystallised with AMPPCP (domain or fragment)
chain: GAMAMNGEAICSALPTIPYHKLADLRYLSRGASGTVSSARHADWRVQVAVKHLHIHTPLLDSERKDVLREAEILHKARFSYILPILGICNEPEFLGIVTEYMPNGSLNELLHRKTEYPDVAWPLRFRILHEIALGVNYLHNMTPPLLHHDLKTQNILLDNEFHVKIADFGLSKWRMMSLSQSRSSKSAPEGGTIIYMPPENYEPGQKSRASIKHDIYSYAVITWEVLSRKQPFEDVTNPLQIMYSVSQGHRPVINEESLPYDIPHRARMISLIESGWAQNPDERPSFLKCLIELEPVFRTFEEI
notes: The methods say the AMPPCP crystals came from RIP2K_(L294F); the results call this structure wild-type RIP2K; no density for the phosphorylation sites; also called RIPK_(L294F); RIP2K-AMPPCP; not shown: His-tag, N-terminal, cleaved
binding result [4]: binds
